Experimental data taken from US20230357348A1 (AstraZeneca / MedImmune, published 2023).
Starred links: 1 amine or outer side, 2 acyl side, 3 side chain; linkers in the order of their positions; H or OH if unused. Non-standard residues stand in square brackets, D forms with d. Groups on a side chain read outwards from the residue. No end group written: not given here. *: point of attachment. C20 diacid = O=C(O)CCCCCCCCCCCCCCCCCCC(=O)*; C18 diacid = O=C(O)CCCCCCCCCCCCCCCCC(=O)*; γGlu = O=C(O)[C@H](CCC(=O)[*:2])N[*:1]; αMeF = C[C@](N)(Cc1ccccc1)C(=O)O; AEEA = NCCOCCOCC(=O)O; Aib = CC(C)(N)C(=O)O

How the values were obtained:
[1] = target: human GLP-1 receptor (hGLP-1R) (human, UniProt P43220 24-463); test: cell-based or functional assay
[2] = target: human glucagon receptor (hGCGR) (human, UniProt P47871 26-477); test: cell-based or functional assay
Sequence of human glucagon receptor (hGCGR) (P47871 26-477): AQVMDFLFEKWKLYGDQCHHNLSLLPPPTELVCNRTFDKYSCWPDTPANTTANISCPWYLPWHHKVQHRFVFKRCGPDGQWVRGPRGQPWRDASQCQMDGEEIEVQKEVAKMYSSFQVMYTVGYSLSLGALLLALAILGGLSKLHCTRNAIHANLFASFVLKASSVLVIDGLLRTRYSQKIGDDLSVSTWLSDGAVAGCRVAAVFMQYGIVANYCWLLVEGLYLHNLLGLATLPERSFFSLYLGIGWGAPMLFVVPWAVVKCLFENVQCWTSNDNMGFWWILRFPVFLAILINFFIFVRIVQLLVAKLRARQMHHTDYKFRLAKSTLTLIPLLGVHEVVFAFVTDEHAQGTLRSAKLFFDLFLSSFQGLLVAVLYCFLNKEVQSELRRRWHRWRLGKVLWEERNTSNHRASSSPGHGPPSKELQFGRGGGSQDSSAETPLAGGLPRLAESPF

hGLP-1R EC50 (pM) [1] [pM]	hGluc-R EC50 (pM) [2] [pM]	Binder
167	–	H[Aib]QGTFTSDVSK[αMeF]LDRK([AEEA-AEEA-γGlu-C18 diacid])RAQDFVRWLLAE-NH2 (N-terminus assumed; SMILES CC(C)C[C@H](NC(=O)[C@H](CC(C)C)NC(=O)[C@H](Cc1c[nH]c2ccccc12)NC(=O)[C@H](CCCNC(=N)N)NC(=O)[C@@H](NC(=O)[C@H](Cc1ccccc1)NC(=O)[C@H](CC(=O)O)NC(=O)[C@H](CCC(N)=O)NC(=O)[C@H](C)NC(=O)[C@H](CCCNC(=N)N)NC(=O)[C@H](CCCCNC(=O)COCCOCCNC(=O)COCCOCCNC(=O)CC[C@H](NC(=O)CCCCCCCCCCCCCCCCC(=O)O)C(=O)O)NC(=O)[C@H](CCCNC(=N)N)NC(=O)[C@H](CC(=O)O)NC(=O)[C@H](CC(C)C)NC(=O)[C@](C)(Cc1ccccc1)NC(=O)[C@H](CCCCN)NC(=O)[C@H](CO)NC(=O)[C@@H](NC(=O)[C@H](CC(=O)O)NC(=O)[C@H](CO)NC(=O)[C@@H](NC(=O)[C@H](Cc1ccccc1)NC(=O)[C@@H](NC(=O)CNC(=O)[C@H](CCC(N)=O)NC(=O)C(C)(C)NC(=O)[C@@H](N)Cc1c[nH]cn1)[C@@H](C)O)[C@@H](C)O)C(C)C)C(C)C)C(=O)N[C@@H](C)C(=O)N[C@@H](CCC(=O)O)C(N)=O) [Peptide 461]
274	–	H[Aib]QGTFTSDVSK[αMeF]LDSK([AEEA-AEEA-γGlu-γGlu-C18 diacid])RAQDFVQWLL[Aib]T-NH2 (N-terminus assumed; SMILES CC(C)C[C@H](NC(=O)[C@H](Cc1c[nH]c2ccccc12)NC(=O)[C@H](CCC(N)=O)NC(=O)[C@@H](NC(=O)[C@H](Cc1ccccc1)NC(=O)[C@H](CC(=O)O)NC(=O)[C@H](CCC(N)=O)NC(=O)[C@H](C)NC(=O)[C@H](CCCNC(=N)N)NC(=O)[C@H](CCCCNC(=O)COCCOCCNC(=O)COCCOCCNC(=O)CC[C@H](NC(=O)CC[C@H](NC(=O)CCCCCCCCCCCCCCCCC(=O)O)C(=O)O)C(=O)O)NC(=O)[C@H](CO)NC(=O)[C@H](CC(=O)O)NC(=O)[C@H](CC(C)C)NC(=O)[C@](C)(Cc1ccccc1)NC(=O)[C@H](CCCCN)NC(=O)[C@H](CO)NC(=O)[C@@H](NC(=O)[C@H](CC(=O)O)NC(=O)[C@H](CO)NC(=O)[C@@H](NC(=O)[C@H](Cc1ccccc1)NC(=O)[C@@H](NC(=O)CNC(=O)[C@H](CCC(N)=O)NC(=O)C(C)(C)NC(=O)[C@@H](N)Cc1c[nH]cn1)[C@@H](C)O)[C@@H](C)O)C(C)C)C(C)C)C(=O)N[C@@H](CC(C)C)C(=O)NC(C)(C)C(=O)N[C@H](C(N)=O)[C@@H](C)O) [Peptide 463]

Second part, the binder before the results:

Binder	hGLP-1R EC50 (pM) [1] [pM]	hGluc-R EC50 (pM) [2] [pM]
H[Aib]QGTFTSDVSK[αMeF]LDTK([AEEA-AEEA-γGlu-γGlu-C20 diacid])RAQDFVRWLEA[Aib]G-OH (N-terminus assumed; SMILES CC(C)C[C@H](NC(=O)[C@H](Cc1c[nH]c2ccccc12)NC(=O)[C@H](CCCNC(=N)N)NC(=O)[C@@H](NC(=O)[C@H](Cc1ccccc1)NC(=O)[C@H](CC(=O)O)NC(=O)[C@H](CCC(N)=O)NC(=O)[C@H](C)NC(=O)[C@H](CCCNC(=N)N)NC(=O)[C@H](CCCCNC(=O)COCCOCCNC(=O)COCCOCCNC(=O)CC[C@H](NC(=O)CC[C@H](NC(=O)CCCCCCCCCCCCCCCCCCC(=O)O)C(=O)O)C(=O)O)NC(=O)[C@@H](NC(=O)[C@H](CC(=O)O)NC(=O)[C@H](CC(C)C)NC(=O)[C@](C)(Cc1ccccc1)NC(=O)[C@H](CCCCN)NC(=O)[C@H](CO)NC(=O)[C@@H](NC(=O)[C@H](CC(=O)O)NC(=O)[C@H](CO)NC(=O)[C@@H](NC(=O)[C@H](Cc1ccccc1)NC(=O)[C@@H](NC(=O)CNC(=O)[C@H](CCC(N)=O)NC(=O)C(C)(C)NC(=O)[C@@H](N)Cc1c[nH]cn1)[C@@H](C)O)[C@@H](C)O)C(C)C)[C@@H](C)O)C(C)C)C(=O)N[C@@H](CCC(=O)O)C(=O)N[C@@H](C)C(=O)NC(C)(C)C(=O)NCC(=O)O) [Peptide 408]	370	828
H[Aib]QGTFTSDVSK[αMeF]LDTK([AEEA-AEEA-γGlu-C18 diacid])RAQDFVRWLLE[Aib]G-OH (N-terminus assumed; SMILES CC(C)C[C@H](NC(=O)[C@H](Cc1c[nH]c2ccccc12)NC(=O)[C@H](CCCNC(=N)N)NC(=O)[C@@H](NC(=O)[C@H](Cc1ccccc1)NC(=O)[C@H](CC(=O)O)NC(=O)[C@H](CCC(N)=O)NC(=O)[C@H](C)NC(=O)[C@H](CCCNC(=N)N)NC(=O)[C@H](CCCCNC(=O)COCCOCCNC(=O)COCCOCCNC(=O)CC[C@H](NC(=O)CCCCCCCCCCCCCCCCC(=O)O)C(=O)O)NC(=O)[C@@H](NC(=O)[C@H](CC(=O)O)NC(=O)[C@H](CC(C)C)NC(=O)[C@](C)(Cc1ccccc1)NC(=O)[C@H](CCCCN)NC(=O)[C@H](CO)NC(=O)[C@@H](NC(=O)[C@H](CC(=O)O)NC(=O)[C@H](CO)NC(=O)[C@@H](NC(=O)[C@H](Cc1ccccc1)NC(=O)[C@@H](NC(=O)CNC(=O)[C@H](CCC(N)=O)NC(=O)C(C)(C)NC(=O)[C@@H](N)Cc1c[nH]cn1)[C@@H](C)O)[C@@H](C)O)C(C)C)[C@@H](C)O)C(C)C)C(=O)N[C@@H](CC(C)C)C(=O)N[C@@H](CCC(=O)O)C(=O)NC(C)(C)C(=O)NCC(=O)O) [Peptide 140]	22.7	–
H[Aib]QGTFTSDVSK[αMeF]LDTK([AEEA-AEEA-γGlu-C20 diacid])RAQDFVRWLEA[Aib]G-OH (N-terminus assumed; SMILES CC(C)C[C@H](NC(=O)[C@H](Cc1c[nH]c2ccccc12)NC(=O)[C@H](CCCNC(=N)N)NC(=O)[C@@H](NC(=O)[C@H](Cc1ccccc1)NC(=O)[C@H](CC(=O)O)NC(=O)[C@H](CCC(N)=O)NC(=O)[C@H](C)NC(=O)[C@H](CCCNC(=N)N)NC(=O)[C@H](CCCCNC(=O)COCCOCCNC(=O)COCCOCCNC(=O)CC[C@H](NC(=O)CCCCCCCCCCCCCCCCCCC(=O)O)C(=O)O)NC(=O)[C@@H](NC(=O)[C@H](CC(=O)O)NC(=O)[C@H](CC(C)C)NC(=O)[C@](C)(Cc1ccccc1)NC(=O)[C@H](CCCCN)NC(=O)[C@H](CO)NC(=O)[C@@H](NC(=O)[C@H](CC(=O)O)NC(=O)[C@H](CO)NC(=O)[C@@H](NC(=O)[C@H](Cc1ccccc1)NC(=O)[C@@H](NC(=O)CNC(=O)[C@H](CCC(N)=O)NC(=O)C(C)(C)NC(=O)[C@@H](N)Cc1c[nH]cn1)[C@@H](C)O)[C@@H](C)O)C(C)C)[C@@H](C)O)C(C)C)C(=O)N[C@@H](CCC(=O)O)C(=O)N[C@@H](C)C(=O)NC(C)(C)C(=O)NCC(=O)O) [Peptide 407]	209	462
H[Aib]QGTFTSDVSK[αMeF]LDTK([AEEA-AEEA-γGlu-γGlu-C20 diacid])RARDFVQWLLE[Aib]G-NH2 [Peptide 458]	–	385
